Laboratory results taken from patent US8513182B2, “Natural polypeptides for oral health care” (priority 2007, dated 2013).

System: Streptococcus mutans
Test: activity of full length lactoferrin variants expressed in insect cells against S. mutans
Format: cell-based
Details: Lf variant expressed in an insect vector
Text: Caries is the single most common chronic childhood disease, five times more common than asthma. Over 70% of children […] have cavities. Over 108 million Americans lack dental health insurance so that treatment of this infection is lacking. S. mutans is considered one of the microbes most associated with dental decay.
Lactoferrin (Lf) is a multifunctional protein that is found in mammary secretion, tears and saliva and in the gastrointestinal tract. Its main function is to sequester iron from its surroundings to prevent oral microbes from attaining iron, a mineral necessary for survival. In addition, in its N-terminus, Lf has a region that has antimicrobial properties. This region is called the defensin region and it has been shown since 1980's that Lf can kill many types of bacteria including oral bacteria. It was also shown that within that N-terminus region, from amino acid position 11 to 31, at least two polymorphic forms exist. For the most part variation in this defensin region at amino acid position 29 can either contain arginine or lysine. […] Further we then determined that pure lactoferrin would have limited usefulness in the oral cavity unless it was linked to something that would allow it to bind to the tooth surface. […]

B1: arginine variant: more common Lf variant with arginine at position 29, expressed in an insect vector (protein, UniProt P02788 20-710, looked up)
Lactotransferrin: GRRRSVQWCAVSQPEATKCFQWQRNMRKVRGPPVSCIKRDSPIQCIQAIAENRADAVTLDGGFIYEAGLAPYKLRPVAAEVYGTERQPRTHYYAVAVVKKGGSFQLNELQGLKSCHTGLRRTAGWNVPIGTLRPFLNWTGPPEPIEAAVARFFSASCVPGADKGQFPNLCRLCAGTGENKCAFSSQEPYFSYSGAFKCLRDGAGDVAFIRESTVFEDLSDEAERDEYELLCPDNTRKPVDKFKDCHLARVPSHAVVARSVNGKEDAIWNLLRQAQEKFGKDKSPKFQLFGSPSGQKDLLFKDSAIGFSRVPPRIDSGLYLGSGYFTAIQNLRKSEEEVAARRARVVWCAVGEQELRKCNQWSGLSEGSVTCSSASTTEDCIALVLKGEADAMSLDGGYVYTAGKCGLVPVLAENYKSQQSSDPDPNCVDRPVEGYLAVAVVRRSDTSLTWNSVKGKKSCHTAVDRTAGWNIPMGLLFNQTGSCKFDEYFSQSCAPGSDPRSNLCALCIGDEQGENKCVPNSNERYYGYTGAFRCLAENAGDVAFVKDVTVLQNTDGNNNEAWAKDLKLADFALLCLDGKRKPVTEARSCHLAMAPNHAVVSRMDKVERLKQVLLHQQAKFGRNGSDCPDKFCLFQSETKNLLFNDNTECLARLHGKTTYEKYLGPQYVAGITNLKKCSTSPLLEACEFLRK
killing / survival of S. mutans: little to no effect
